Where two headings read alike, the source gives them in different places.
What was measured:
[1] = target: T1, HMO2 (NHP10) (Saccharomyces cerevisiae, UniProt Q03435 1-203); experiment: EMSA
T1 sequence: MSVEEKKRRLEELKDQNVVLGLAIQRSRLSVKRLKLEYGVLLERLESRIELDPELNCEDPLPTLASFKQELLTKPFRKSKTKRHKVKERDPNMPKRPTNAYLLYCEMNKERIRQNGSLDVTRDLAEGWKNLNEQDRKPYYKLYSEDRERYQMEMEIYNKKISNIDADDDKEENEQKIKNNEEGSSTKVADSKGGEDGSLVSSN

[2] = target: T1, HMO2 (NHP10); experiment: EMSA; remark: listed apart in the source

B1: 50 bp duplex (dsDNA)
DNA 1: TTCAATCCCCGTCTGTCCCCCGATCCCCTGCTCGTAGGCGTGCTTGACCG
DNA 2: CGGTCAAGCACGCCTACGAGCAGGGGATCGGGGGACAGACGGGGATTGAA
binding result [1]: no binding

B2: 50 bp duplex with tandem AA and CT loops (dsDNA)
DNA 1: ACAGTGGAGTAGGCTACACCTACTCTTTGTAAGAATTTTGCAAAAAGTAC
DNA 2: GTACTTTTTGCAAAATTCAAACAAAGAGTTCGTGTAGCCTACTCCACTGT
binding result [2]: binds

Source: PMC2770664
